The test concerns the target T1, FedF_(15–165), N-terminal lectin domain of the F18 fimbrial tip adhesin FedF (Escherichia coli (F18-fimbriated …, NT647 on surface exposed amine groups (in the MST only))).
T1 construct: also called FedF lectin domain
T1 chain: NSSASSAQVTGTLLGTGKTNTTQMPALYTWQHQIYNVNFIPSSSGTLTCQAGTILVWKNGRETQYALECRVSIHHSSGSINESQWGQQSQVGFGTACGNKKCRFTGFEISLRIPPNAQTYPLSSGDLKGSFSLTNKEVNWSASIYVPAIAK
The test can be described thus: MST. The following applies: both partners purified.

One may read the Kd as the equilibrium constant for the complex coming apart. Higher therefore signals lower affinity.

B1: NbFedF7 (VHH)
VHH: QVQLQESGGGSVQAGGSLRLSCTASGYTYRKYCMGWFRQAPGKEREGVACINSGGGTSYYADSVKGRFTISQDNAKDTVFLRMNSLKPEDTAIYYCALSSNSVCPPGHVAWYNDWGQGTQVTVSS
notes: source: E. coli WK6, periplasmic extract, purified (Ni-NTA); not shown: His6, C-terminal, kept
For B1, the equilibrium dissociation constant (Kd) was found to be 5.25 nM.

B2: NbFedF12 (VHH)
VHH: QVQLQESGGGSVQAGGSLRLSCAASGNTKSYWMGWFRQAPGKEREGVAVIAGGGAFTYYAESVKGRFTISQDNTKDTVYLAMNSLKPEDTALYYCALRTLNNGGIFLLNSPSSFHYWGQGTQVTVSS
notes: source: E. coli WK6, periplasmic extract, purified (Ni-NTA)
Molecule B2 gave a dissociation constant Kd of 29 nM.

B3: NbFedF6 (VHH)
VHH: QVQLQESGGGSVQAGGSLRLSCAASGYTSGRDSMGWFRQAPGKEREGVACIDTSGIVNYADSVKGRFTISQDSAKKTLYLEMNSLKPEDTALYSCATGPFVYGRGCLGQAFYSYWGQGTQVTVSS
notes: as for B1
The molecule B3 yielded a Kd of 3.57 nM.

B4: NbFedF9 (VHH)
VHH: QVQLQESGGGSVQAGGSLRLSCAASGYTYSSNCMAWFRQVPGKEREGVASINTRGGITYYADSVKGRFTISRDNAKNTVSLQMNSLKPEDTATYYCAAVREATYSDNRCSVRSYTYDYWGQGTQVTVSS
notes: as for B1
With B4, the Kd was 1.58 nM.

The values are drawn from article PMC4263667, “Nanobody Mediated Inhibition of Attachment of F18 Fimbriae Expressing Escherichia coli” (PLoS ONE, 2014).
